The text below walks through data of paper doi:10.1101/2025.01.16.633226.

Data set [1] concerns the target T1, LARP6 (70-295) (UniProt Q9BRS8 70-295).
T1 sequence: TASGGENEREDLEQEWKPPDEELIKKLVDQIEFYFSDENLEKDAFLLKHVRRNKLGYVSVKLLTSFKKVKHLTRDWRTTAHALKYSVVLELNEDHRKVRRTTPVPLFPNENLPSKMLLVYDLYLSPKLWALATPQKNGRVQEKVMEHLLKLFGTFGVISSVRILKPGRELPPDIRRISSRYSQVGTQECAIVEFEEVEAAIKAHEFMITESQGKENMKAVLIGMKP
The data set can be described thus: TR-FRET competition. A general note: Time-resolved FRET reads energy transfer from a long-lived donor to a nearby acceptor.

For data set [2], the target named is T2, LARP6 (ITC) (UniProt Q9BRS8 70-295).
T2 sequence: T1 sequence
The data set can be described thus: ITC. For orientation: In ITC the heat of successive injections is recorded.

Data set [3] deals with T2, LARP6 (ITC). The data set can be described thus: ITC. The source holds these as a separate data set.
In data set [4] the target is T1, LARP6 (70-295). The data set can be described thus: TR-FRET competition. The source holds these as a separate data set.
Data set [5] deals with T2, LARP6 (ITC). The data set can be described thus: ITC. This is another data set of the same source.
Data set [6] deals with T1, LARP6 (70-295). Put plainly: TR-FRET competition. This is another data set of the same source.

For orientation: IC50 means the concentration needed to halve the response being measured. Low readings indicate inhibition by little substance, high ones a need for much substance. In general, Kd refers to a measure of binding affinity in units of concentration.

Like-named read-outs stand apart in the source and are kept apart here.

Consider CCACAAAGAGUCUACAUGUCUAGGGUCUAGACAUGUUCAGCUUUGUGG (structured_RNA) [A1 (COL1A1 5'SL)], for which the 50% inhibitory concentration (IC50) in data set [1] came to 6.84 nM. Moreover, the Kd in data set [2] is over 400 nM.

B1: COL5A1-CDS (ssRNA)
RNA: CUGCUGCUGCUGCUGUGGGCGCCGCCUCCGAGCCGCGCAGCUCAGCCAGCAGAUCUCCUG
Consider B1, for which the binding result in data set [3] and in data set [4] was “binds” each time.

B2: COL1A1-TIS (structured_RNA)
RNA: CCAGCCACAAAGAGUCUACAUGUCUAGGGUCUAGACAUGUUCAGCUUUGUGGACCUCCGG
In turn, B2 gave a half-maximal inhibitory concentration (IC50) in data set [1] of 2.71 nM. Further, the dissociation constant (Kd) in data set [5] was 400 nM.

B3: CCNI-5'UTR (ssRNA)
RNA: GGGUCAUCAUGGAACUAAUUCGCUGACCGACCCAGCGGCCGCAGCCGUGCGUCCCGCUCG
For the molecule B3, the binding result in data set [6] and in data set [5] was “no binding” in each case.

B4: LRP1-CDS (ssRNA)
RNA: CUGCAUGUGCACAGCCGGCUAUAGCCUCCGGAGUGGCCAGCAGGCCUGCGAGGGCGUAGG
In the case of B4, the binding result in data set [3] and in data set [4] was “binds” throughout.
